The results in this text go back to IntAct's records for PubMed 16278825.

First the molecules themselves.
B1: Ras-related protein Rab-27A (Homo sapiens), P51159 (parent)
chain: MSDGDYDYLIKFLALGDSGVGKTSVLYQYTDGKFNSKFITTVGIDFREKRVVYRASGPDGATGRGQRIHLQLWDTAGQERFRSLTTAFFRDAMGFLLLFDLTNEQSFLNVRNWISQLQMHAYCENPDIVLCGNKSDLEDQRVVKEEEAIALAEKYGIPYFETSAANGTNISQAIEMLLDLIMKRMERCVDKSWIPEGVVRSNGHASTDQLSEEKEKGACGC
partner: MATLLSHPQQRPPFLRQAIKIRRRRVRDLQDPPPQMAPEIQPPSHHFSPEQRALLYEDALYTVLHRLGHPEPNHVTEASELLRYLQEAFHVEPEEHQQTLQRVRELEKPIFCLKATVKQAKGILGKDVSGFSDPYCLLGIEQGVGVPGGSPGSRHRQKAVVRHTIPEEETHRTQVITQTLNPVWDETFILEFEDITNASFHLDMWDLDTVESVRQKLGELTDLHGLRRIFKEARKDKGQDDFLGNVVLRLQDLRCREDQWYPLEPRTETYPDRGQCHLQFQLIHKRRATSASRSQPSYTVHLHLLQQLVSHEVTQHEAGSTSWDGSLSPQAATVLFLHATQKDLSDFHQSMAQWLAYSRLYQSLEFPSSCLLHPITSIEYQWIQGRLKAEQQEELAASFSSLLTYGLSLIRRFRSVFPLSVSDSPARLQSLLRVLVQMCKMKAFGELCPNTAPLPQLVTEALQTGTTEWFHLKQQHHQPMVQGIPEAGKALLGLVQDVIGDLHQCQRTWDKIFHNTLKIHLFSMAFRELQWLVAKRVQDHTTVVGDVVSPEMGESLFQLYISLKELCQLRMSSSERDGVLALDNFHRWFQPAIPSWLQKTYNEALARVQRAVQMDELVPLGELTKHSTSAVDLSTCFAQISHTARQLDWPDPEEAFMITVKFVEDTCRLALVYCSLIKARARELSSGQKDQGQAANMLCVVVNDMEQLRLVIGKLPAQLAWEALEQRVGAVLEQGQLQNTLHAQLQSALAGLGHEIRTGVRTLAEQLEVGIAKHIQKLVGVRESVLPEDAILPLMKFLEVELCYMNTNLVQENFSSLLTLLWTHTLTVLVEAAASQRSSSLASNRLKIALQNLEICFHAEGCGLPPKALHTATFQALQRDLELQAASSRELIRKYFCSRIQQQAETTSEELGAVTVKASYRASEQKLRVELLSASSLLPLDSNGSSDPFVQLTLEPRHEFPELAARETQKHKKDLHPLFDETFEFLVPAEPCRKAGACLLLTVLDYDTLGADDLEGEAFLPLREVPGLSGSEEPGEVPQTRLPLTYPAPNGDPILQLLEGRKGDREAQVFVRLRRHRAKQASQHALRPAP
B2: Protein unc-13 homolog D (Homo sapiens), Q70J99 (parent)
chain: B1 partner

Variants of B1 are the subject of one assay. As to conditions: with un13d_human UNC13D.
As to T23N, the “effect of a mutation on the interaction” value was “disrupting interaction strength”.
Same read-out and setting: then Q78L, with “with no effect”; and A87P, with “disrupting interaction strength”.

Another assay covers variants of B2. As to conditions: with rb27a_human RAB27A.
Turning to L403P, the “effect of a mutation on the interaction” value is listed as “disrupting interaction strength”.
